Assay results as given in patent publication US20040014151A1 (published 2004).

Target: the molecule itself
Assay: SEC-HPLC of IMAC-purified protein from cpcE or cpcF mutant
Method: Size Exclusion Chromatography-High Performance Liquid Chromatography—Although IMAC-purified and dialyzed samples (see above) could be used with no obvious effect on the results, proteins to be analyzed by SEC-HPLC were generally dialyzed again in 50 mM Na—PO₄ pH 7.0, 50 mM NaCl, 0.5 mM DTT. […] A mobile phase of 50 mM Na—PO₄ pH 7.0 was flowed at 0.8 ml min⁻¹ through Bio-Sil 250 (Bio-Rad Laboratories, Hercules, Calif.) guard column (80×7.8 mm) and column (300×7.8 mm) maintained at 25° C. For analytical separations, 50 to 200 μg of phycocyanin was loaded [based on absorbance at the peak near 621 nm and using a molar extinction coefficient of 290,000 M⁻¹ cm⁻¹ per monomer (29)]. Molecular size calibration utilized bovine gamma globulin, 158 kDa; chicken ovalbumin, 44 kDa; horse myoglobin, 17 kDa; vitamin B12, 1.35 kDa (Bio-Rad gel filtration standards). The void volume was determined with blue dextran, 2000 kDa (Pharmacia Biotech, Piscataway, N.J.). Preparative separations were performed with loads of 0.5 to 1 mg phycocyanin.

B1: His-tagged C-phycocyanin β subunit, holo-HTβ (other, Anabaena sp. PCC7120, UniProt P07120 1-173, looked up)
chain: MTLDVFTKVVSQADSRGEFLSNEQLDALANVVKEGNKRLDVVNRITSNASAIVTNAARALFEEQPQLIAPGGNAYTNRRMAACLRDMEIILRYVTYAILAGDASVLDDRCLNGLRETYQALGTPGSSVAVGVQKMKDAAVGIANDPNGITKGDCSQLISEVASYFDRAAAAVG
modifications: two phycocyanobilins (PCB); methylated Asn72
notes: Encoded by pBS262, expressed in Anabaena sp; also called An262; not shown: 24-residue N-terminal extension with 6xHis tag and TEV protease site
B1: binds.
